Publication PMC9912922, “The LH–DH module of bacterial replicative helicases is the common binding site for DciA and other helicase loaders” (Acta Crystallographica. Section D, Structural Biology, 2023)

B1: VcDnaB, replicative helicase DnaB from Vibrio cholerae (enzyme)
chain: MADPRTDNRNRKIPDAQVDAIKVPPHSLEAEQSVIGGLLLDNERWDTVSEHVMTQDFYSRPHRLIFDGVKSILEAGKPLDLITLSEYLEQREQLEDVGGFAYLADLAKNTPSAANINAYAEIVAERALVRNLIGVANEIADAGYDPQGRNAEDLLDLAESKVFAIAEARTSENEGPKNVDSILERTLERIELLYKTPQDGVTGVNTGFTDLNKKTAGLQGSDLIIVAARPSMGKTTFAMNLCENAAMEQDKPVLIFSLEMPAEQIMMRMLASLSRVDQTKIRTGQLDDEDWARISSTMGILMEKKNMYIDDSSGLTPTEVRSRARRIAREHGGLSLIMVDYLQLMRVPALTDNRTLEIAEISRSLKALAKELNVPVVALSQLNRSLEQRADKRPVNSDLRESGSIEQDADLIMFIYRDEVYHPDSPLKGTAEIIIGKQRNGPIGSVRLTFQGHYSRFDNYAGPAFDDE
notes: DnaB replicative helicase, Vibrio cholerae; seen as full-length protein without proteolysis on SDS-PAGE of the crystals; NTD 22-175 and CTD 200-461 of PDB 6t66 were the search models

Legend:
[1] = target: the molecule itself; assay: crystal structure; VcDnaB (0.115 mM monomer) pre-incubated with 2 mM ADP and 5 mM MgCl2, VcDciA added to 0.138 mM; crystals at 18°C in 0.1 M sodium acetate pH 4.8-5.6, 0.7-0.9 M potassium/sodium tartrate; 2.9 Å
[2] = target: B1; assay: intrinsic fluorescence variation along a thermal ramp (Tycho NT.6 nano-DSF); 20 µM of each protein in 50 mM HEPES pH 7.5, 150 mM NaCl, 1 mM ATP; 350/330 nm ratio, 35 to 95°C, compared with the ratio predicted in the absence of interaction; three to five replicates; settings: both partners purified

B1: binds [1].

B2: EcDnaC, helicase loader DnaC from Escherichia coli (natural protein)
chain: MKNVGDLMQRLQKMMPAHIKPAFKTGEELLAWQKEQGAIRSAALERENRAMKMQRTFNRSGIRPLHQNCSFENYRVECEGQMNALSKARQYVEEFDGNIASFIFSGKPGTGKNHLAAAICNELLLRGKSVLIITVADIMSAMKDTFRNSGTSEEQLLNDLSNVDLLVIDEIGVQTESKYEKVIINQIVDRRSSSKRPTGMLTNSNMEEMTKLLGERVMDRMRLGNSLWVIFNWDSYRSRVTGKEY
notes: DnaC helicase loader, Escherichia coli; source: overexpressed in E. coli, purified as described in Marsin et al. (2021)
B2: binds [2].
